Patent publication US20210261665A1 (TAYU HUAXIA BIOTECH MEDICAL GROUP, published 2021)

Target: T1, hPD-1 mIg fusion protein (human; mouse, UniProt Q15116 25-170)
T1 construct: extracellular domain; not shown: CH2-CH3 domain of mouse IgG2a heavy chain (plasmid pmIgG)
Test: SPR Biacore T100, hPD-1mIg immobilised by amine coupling, antibody as analyte
Description: Binding affinity and kinetics determination of the humanized antibodies: The binding affinity and kinetics of the humanized PD-1 mAbs interact with hPD-1 protein was assessed with Biacore T100 (GE Healthcare Life Sciences). […] Nine different concentrations were tested for each sample. Detailed binding kinetic parameters (association rate, Ka, dissociation rate, Kd, and affinity constant, KD) can be determined by full kinetic analysis.

T1 sequence (Q15116 25-170): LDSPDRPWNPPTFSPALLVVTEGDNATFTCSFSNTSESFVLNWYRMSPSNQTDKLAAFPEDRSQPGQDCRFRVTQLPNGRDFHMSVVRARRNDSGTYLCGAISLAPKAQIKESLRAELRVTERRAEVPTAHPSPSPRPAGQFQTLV

B1: Variant 2 (antibody, V domains shown)
VH: EVQLVESGGGLVQPGGSLRLSCAASGFTFSSYTMSWVRQAPGKGLEWVSYISHGGGDTYYADSVKGRFTISRDNSKNTLYLQMNSLRAEDTAVYYCARHSGYERGYYYVMDYWGQGTLVTVSS
VL: DIVMTQSPDSLAVSLGERATINCKASESVDYYGFSFLNWFQQKPGQPPKLLIYAASNRESGVPDRFSGSGSGTDFTLTISSLQAEDVAVYYCQQSKEVPWTFGQGTKLEIKR
notes: Humanized; VH variant a, VK variant b; Constant regions not spelled out; chimeric parent has human IgG4-S228P and human kappa; also called mutant combination 2
Kd: 0.363 nM | koff: 7.64e-05 s⁻¹ | kon: 210000 M⁻¹ s⁻¹

B2: Variant 1 (antibody, V domains shown)
VH: EVQLVESGGGLVQPGGSLRLSCAASGFTFSSYTMSWVRQAPGKGLEWVSYISHGGGDTYYADSVKGRFTISRDNSKNTLYLQMNSLRAEDTAVYYCARHSGYERGYYYVMDYWGQGTLVTVSS
VL: DIVMTQSPDSLAVSLGERATINCKSSESVDYYGFSFLNWFQQKPGQPPKLLIYAASNRESGVPDRFSGSGSGTDFTLTISSLQAEDVAVYYCQQSKEVPWTFGQGTKLEIKR
notes: Humanized; Constant regions not spelled out for the humanized antibodies; the chimeric parent has human IgG4-S228P and human kappa; also called mutant combination 1
Kd: 0.293 nM | koff: 6.15e-05 s⁻¹ | kon: 210000 M⁻¹ s⁻¹

B3: chimeric parental antibody (antibody, human IgG4 S228P, kappa, V domains shown)
VH: EVKLVESGGGLVQPGGSLKLSCAASGFTFSSYTMSWIRQTPEKRLEWVAYISHGGGDTYYPDTVKGRFTISRDNAKNTLYLQMSSLKSEDTAMYYCARHSGYERGYYYVMDYWGQGTSVTVSS
VL: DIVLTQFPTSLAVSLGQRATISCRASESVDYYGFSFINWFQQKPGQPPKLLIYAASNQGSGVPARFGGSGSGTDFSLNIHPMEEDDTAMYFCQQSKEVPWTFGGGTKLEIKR
notes: also called chimeric antibody
Kd: 0.0989 nM | koff: 2.85e-05 s⁻¹ | kon: 288000 M⁻¹ s⁻¹

B4: Variant 5 (antibody, V domains shown)
VH: EVQLVESGGGLVQPGGSLRLSCAASGFTFSSYTMSWVRQAPGKGLEWVSYISHGGGDTYYPDSVKGRFTISRDNSKNTLYLQMNSLRAEDTAVYYCARHSGYERGYYYVMDYWGQGTLVTVSS
VL: DIVMTQSPDSLAVSLGERATINCKASESVDYYGFSFLNWFQQKPGQPPKLLIYAASNRESGVPDRFSGSGSGTDFTLTISSLQAEDVAVYYCQQSKEVPWTFGQGTKLEIKR
notes: Humanized; VH variant b, VK variant b; Constant regions not spelled out; chimeric parent has human IgG4-S228P and human kappa; also called mutant combination 5
Kd: 0.329 nM | koff: 6.94e-05 s⁻¹ | kon: 211000 M⁻¹ s⁻¹

B5: Variant 4 (antibody, V domains shown)
VH: EVQLVESGGGLVQPGGSLRLSCAASGFTFSSYTMSWVRQAPGKGLEWVSYISHGGGDTYYPDSVKGRFTISRDNSKNTLYLQMNSLRAEDTAVYYCARHSGYERGYYYVMDYWGQGTLVTVSS
VL: DIVMTQSPDSLAVSLGERATINCKSSESVDYYGFSFLNWFQQKPGQPPKLLIYAASNRESGVPDRFSGSGSGTDFTLTISSLQAEDVAVYYCQQSKEVPWTFGQGTKLEIKR
notes: Humanized; VH variant b, VK variant a; Constant regions not spelled out; chimeric parent has human IgG4-S228P and human kappa; also called mutant combination 4
Kd: 0.338 nM | koff: 6.29e-05 s⁻¹ | kon: ~186000 M⁻¹ s⁻¹

B6: Variant 6 (antibody, V domains shown)
VH: EVQLVESGGGLVQPGGSLRLSCAASGFTFSSYTMSWVRQAPGKGLEWVSYISHGGGDTYYPDSVKGRFTISRDNSKNTLYLQMNSLRAEDTAVYYCARHSGYERGYYYVMDYWGQGTLVTVSS
VL: DIQLTQSPDSLSVSLGERATINCKASESVDYYGFSFLNWFQQKPGQPPKLLIYAASNRQSGVPDRFSGSGSGTDFTLTISSLQAEDVAVYFCQQSKEVPWTFGQGTKLEIKR
notes: Humanized; VH variant b, VK variant c; Constant regions not spelled out; chimeric parent has human IgG4-S228P and human kappa; also called mutant combination 6
Kd: 0.0898 nM | koff: 2.23e-05 s⁻¹ | kon: 248000 M⁻¹ s⁻¹

B7: Variant 8 (antibody, V domains shown)
VH: EVKLLESGGGLVQPGGSLRLSCAASGFTFSSYTMSWVRQAPGKGLEWVSYISHGGGDTYYPDSVKGRFTISRDNSKNTLYLQMNSLRAEDTAVYYCARHSGYERGYYYVMDYWGKGTTVTVSS
VL: DIVMTQSPDSLAVSLGERATINCKASESVDYYGFSFLNWFQQKPGQPPKLLIYAASNRESGVPDRFSGSGSGTDFTLTISSLQAEDVAVYYCQQSKEVPWTFGQGTKLEIK
notes: Humanized; VH variant c, VK variant b; Constant regions not spelled out; also called mutant combination 8
Kd: 0.358 nM | koff: 7.95e-05 s⁻¹ | kon: 222000 M⁻¹ s⁻¹

B8: Variant 7 (antibody, V domains shown)
VH: EVKLLESGGGLVQPGGSLRLSCAASGFTFSSYTMSWVRQAPGKGLEWVSYISHGGGDTYYPDSVKGRFTISRDNSKNTLYLQMNSLRAEDTAVYYCARHSGYERGYYYVMDYWGKGTTVTVSS
VL: DIVMTQSPDSLAVSLGERATINCKSSESVDYYGFSFLNWFQQKPGQPPKLLIYAASNRESGVPDRFSGSGSGTDFTLTISSLQAEDVAVYYCQQSKEVPWTFGQGTKLEIK
notes: Humanized; VH variant c, VK variant a; Constant regions not spelled out; also called mutant combination 7
Kd: 0.291 nM | koff: 6.48e-05 s⁻¹ | kon: 218000 M⁻¹ s⁻¹
